# Reference: the DeepSol protein solubility set
# Assay: soluble on expression in E. coli; label from the status in PepcDB or PDB records
row,Sequence,soluble on expression in E. coli
1,MLNYTGLENKNVLVVGLAKSGYEAAKLLSKLGANVTVNDGKDLSQDAHAKDLESMGISVVSGSHPLTLLDNNPIIVKNPGIPYTVSIIDEAVKRGLKILTEVELSYLISEAPIIAVTGTNGKTTVTSLIGDMFKKSRLTGRLSGNIGYVASKVAQEVKPTDYLVTELSSFQLLGIEKYKPHIAIITNIYSAHLDYHENLENYQNAKKQIYKNQTEEDYLICNYHQRQVIESEELKAKTLYFSTQQEVDGIYIKDGFIVYKGVRIINTEDLVLPGEHNLENILAAVLACILAGVPIKAIIDSLTTFSGIEHRLQYVGTNRTNKYYNDSKATNTLATQFALNSFNQPIIWLCGGLDRGNEFDELIPYMENVRAMVVFGQTKAKFAKLGNSQGKSVIEANNVEDAVDKVQDIIEPNDVVLLSPACASWDQYSTFEERGEKFIERFRAHLPSY,not soluble
2,MLPFLAASPGLGDVRAPAIWLGLVSQPSRTPIITKNSKTKRKTDGSTTRQSSSLGPRSSPLRSAGGQLRKTTRSELKKSHFHLGSWNAQSLLGPRLASGVEYLKNSTCHVVNLQETRFFSMASIDQPEFQLLFSPKTNSKDLGLGFFVKKCQDLEVINVSWIGVGIASLELEFRKVKIMVLNVYAPVCKSRSENDAKRFFERLRAEYIQLRKSFKGPIVLGGDFNAATSCSTNDELAPWICGNVFGNSNNHGDFFFNFLASTRLFQLNSRFRKRLASRWTFAGKKGVGRTEIDFFISNRIDLVEDVSTFPNLHNLSDHRLIRSRWVISVKSERDHAFKSRRPPSTGKERDWTLYEDAIKDLRKHATLGSYDSFVKTLRQGLVPLPAHKPHKFSQRTIMILQERRQVLESSVPDIAKLRKLSQEARKSITEDLTQKYDSILEACRKKRSSKILNKSIPAEIPLQYLEWPDGSLTANRIEIRKIVESHFKTLYEAPTSSPSHPRNPNSNPPNSDPVPAILKCEVRLEIRKLKTKSAPGLDNVDAAMLKNGGDTVVDSVTALFNDILHHNKVPDLWKIADVKLIPKKAKATKIKDFRPISLLPILSKMFSSILTRRLTPTLESYLDESQTKVFRKGRCCADNIQSLTMLIEKCNEFQLPLLLLFIDYQTAFDKISHSSVVSSLERAGADPAMRKMIQELMEGGQAEITVHDKKLKVNLCTGIRQGDSASPALFSAALQAILTDCDNELAGVGISVEGRHIRRLEFADDVVLICSTPEEVQERLEILDRISSNYGLKINQSKTVLLKNKFCRSQDILFNGSPIIPVPGCRYLGRWIDISGSIDEEISRRIRAGWGALVGIKEVLRIMPNKERIILFKQNVLPALLYASETWTCNAGSTLRLKRTVTGLIDAAEIRGWNFNLERYLLAKQSRFAGHILRRDPF,not soluble
3,MLPKPGTYYLPWEVSAGQVPDGSTLRTFGRLCLYDMIQSRVTLMAQHGSDQHQVLVCTKLVEPFHAQVGSLYIVLGELQHQQDRGSVVKARVLTCVEGMNLPLLEQAIREQRLYKQERGGSQ,soluble
4,MLQLLLFLIFCSFTNASSCQDKSPYCNPNDCEVRPGYAMVYCRKTCGNCADFCEDSKFITCSAERKKDCDDMLSDYCPRLCGKCYAKLKPDSKRTKTIPVTQFKRNPAATSTTTTTTRSPSIRMKQPRMLPNGTFINPPLPKYEKLDDTTYTIPEHPTVIDYPIAHMEELMIPEPQRIWPEPEPMRIEPISVYSPYSFVPVQPQVSQPYSPWSPTLGLSSSLDSSRRAPQNYFSSYSQYPQYPDEKLNTIAPNPMQLVEPFLTPGQNDLNPKSMSSLINLLGCKDKDEVICKHVTADTCLSRPGYYLKLCPVTCKNCSGYQCIDSIKIDCAEVKAQGACKLSVASEYCPRTCEYCNPPSDMAKTMSDCKDELETCEQLAESGACQHDFR,not soluble
5,MLQPPKIVAELSANHNQDLNLAKESLHAIKESGADFVKLQTYTPSCMTLNSKEDPFIIQGTLWDKENLYELYQKASTPLEWHAELFELARKLDLGIFSSPFSSQALELLESLNCPMYKIASFEIVDLDLIEKAARTQKPIILSSGIATHTELQDAISLCRRVNNFDITLLKCVSAYPSKIEDANLLSMVKLGEIFGVKFGLSDHTIGSLCPILATTLGASMIEKHFILNKSLQTPDSAFSMDFNGFKSMVEAIKQSVLALGEEEPRINPKTLEKRRFFARSLFVIKDIQKGEALTENNIKALRPNLGLHPKFYKEILGQKASKFLKANTPLSADDIERSLLEHHHHHH,not soluble
6,MLQSINQLNPDIVVITGDLTENGFSAEYDGVKMFIDRIECKNRVLVPGNHDSKNAGYLHFEDLFENRFQTRNLGNMTIVGADSSQPDIDDGHLGRENYGWIKEAFSGENFKVFALHHHLVPIPLAGRENTVLVDAGDVLDLLNKCRVNLVLCGHCHIPHVWNLNNMLVVNAGTFCSSKTRGKTTQCFNLIQAENSEKNGNGESEKIEDGGWKVRVSRVFPQGNIEFITETVMLEHHHHHH,not soluble
7,MLRAAGNLSKSMMKSQRRFLNLQEFQSKEILEKHGCSVQNFVVASNRKEAEEKWMSFGDHEYVVKAQILAGGRGKGKFINGTKGIGGVFITKEKDAALEAIDEMIGKRLVTKQTTSEGVRVDKVMIAEGVDIKRETYLAVLMDRESNGPVVVASPDGGMDIEAVAEKTPERIFKTPIDIQMGMTEGQSLKIAKDLQFEGKLIGVAAQEIKRLYDLFIAVDATQVEINPLVETADGRVFCVDAKMNFDDSAAYRQKEIFAYETFEEHDPREVDAHQFNLNYIGMDGNIACLVNGAGLAMATMDLIKLHGGEPANFLDVGGAVTEDAVFNAVRIITSDPRVKCVLINIFGGIVNCATIANGVVSAVNKIGLNVPMVVRLEGTNVDAAKQIMKKSGLKILTANNLDEAAAKAVSSLPK,not soluble
8,MLRAKLLSWQEGVGSKTFEFDVDVEPRSYVISKVSQLSPIIASEDLTVCEGEVAVVGTRVIEIPENTVVRPVAAISHANGFVADVIECGAPGMVEDEKCINHAVFIPTRSGDVKEGDLLGMLRINFVRTGLLSRVIPSKPRVEERTVKASLTWVEGGVFYRENVTGTFSGYFESERCSLLPIVADERVRIEKGGVSAVEIERVDVKGGSIITPYGLAANAFAQLLDLVGGRTRKFEEDRVFDEAVLVGFSDGVVEKGEVLGLVCVMGESSGGGNSRQLQFSRKAGKGVVKTIHEYRSKPLRVGRKGEWRPAISDENRKLIRGVAEIIKIRPINVPDYAVVNPLGIMRQAYGTMVGGIANEPWSLESRKTIEEVVFLPIMDGEVRKGQLIGVFNVTRVAEGKLLEHHHHHH,soluble
9,MLRCCSALMCPTAVPSRVSPVAAAAAADIAGSSESTVSLVADVDKKNSQYKQIFLERFRKKLQSDKTGMNNLESFVELPEGVAPSAASIGPIKRGSEPLPPWIKLKVPKGMTHRPRFNRIRRSMREKNLSTVCEEAKCPNIGECWGGSDEEGTATATIMVMGSHCTRGCRFCSVLTSRRPPPLDPEEPEKVAAAVHEMGVDYIVMTMVDRDDLPDGGASHVCCCIHTIKKKNPELMLEALVGDFHGDLKLVEQLAVTPLSVYAHNIECVERITPRVRDRRASYRQSLQTLEHVTKWTNGNMLTKSSIMLGLGEEEAEVRQTLRDLRTAGVSAVTLGQYLQPSHTRLKVSRYAHPKEFEMWEKEAMDMGFLYCASGPMVRSSYRAGEYYIKNILKQRQSAEGGKAAAAATAVNAGTAIA,not soluble
10,MLRHKEPGSGSGGGVYWVDSQQKRYVPVKGDHVIGIVTAKSGDIFKVDVGGSEPASLSYLSFEGATKRNRPNVQAISSRLLEHHHHHH,not soluble
11,MLRRSSVVLARFQPYSMAVQTRFKWRHKETDRWRRLMDATCFQVDWLGQTAGPNFAQYSGHWTHVITCAHVITPWDYPNYYPPQGPTRFVSHITLADTMTQIRLVSMQGNAVYKHFTSNQHVFVHSNPRLDLCVLHPEQNLKRSGEMKMMWMQNEGYISRPRLEINETLKVGDYVWVYGMSAHESLFDEEKGPEPLMIPTGVRARVHAVTREHFFLDTTALEDNPDRGRIQMGMCGSVVMRNGKCVGMLTATVHEESDCKELAGTAMCTYSSDVFEFLLEVEKQMKNPVARQSQEETRFEQRRRAEGGVKEHKHWELDESRTARHIPVPVSLWHMEEKWVTEEDYMNSAVFGRSGAFNQETQESALGYDMNTAKTNGDRPGDIDSFMSTTTTGKPVMQGERKDYSPTGVYANVEEFKNKDVWDYNVSSEMRSLFNETVDSKDAESLNMMRKSLENIRAQRAMEKMKETVMNRTEPGFDPLKGYGHYGGSADAGAANFNPEYASAHKGSGDAYSYAQAAQQAAREQPGDHASPASTPPPSPPPPNESVIDRKKRERREAEAKYQEELRRRHGQRAVPFGDEDLSGFWERR,not soluble
12,MLRRVNEQGPVQGRAQAPVKPDDSVPPELARARVWILTDGKAGDENQCIGIAEALGLAYETRRIPDGRPLTWMAPWGPIDPRDAPGRAGGLLQGPLPHLLIASGRRAVPYLRAVRRASDEKTFTAFLKDPRTGHDTADFIWVPDYDDLRGPNVFTTLTAPHPVSRARLDAARTTPDPRLARLPWPRIAVLIGGDSRHLRYRKADMQRLVRDLTKLAEGGCSLMLTVSRRTPPDLRKALEDLVKDKGGFFWDGSGENPYVGMLAIADHIVVTSDSANMVGEAASTGVPLLLFDLPRTYIRHRRMFAGLAMAGALKPFIGRLEALRYAPIDATPEIAAALAEGYQRHRARLAGEVAAVPRPAEPTSAPRGPFLEHHHHHH,not soluble
13,MLSALACNMKYSSHPAAVAAGRGGNRRGGRMYAYERITDPAGFAAIEDEWRALAEACGGGGVFASHAFLLSWAETFGQGRRLAVSLLRHKGALVGALPMFHTGQARAVAAMGEGRAGMAQWLLHPDLPDADAALAALLRPDWLSFWRLEPLETPDAEALERAARRAGLAVRRKATMRACSVTTEGDFDSYLGGLKSKTRQVFRRSERKLAEMEVRDLRSDRDGRAALDAYLAASRASWKGLTGTGYGAAPEGVAFVEKLFERLGPEACYLAARQVGEVAISGRFVLVHDNMHYGMANDFNEEYADLAVGRNSIMQSVRDAFEGGAAGFDFTRCNGLVREVSTDERPLERVLIHRRGDPTLAAFFAARGLRRLRRKASGWQKGRRGVVS,not soluble
14,MLSCVIPAHDEAALIGQTLQCLHACAQAMQLDYEAIVVADACSDDTAAIARANGASVIEVELRHIAATRNAGAQAAQGDRLLFLDADTQVNPQVMAAALAALDAGAVGGGARVHLHGKRVWVERMAQAVFGWIFRLSGIAPGCFLFCTRAAFASAGGFDTRYYAGEDVALSRSLARCGRFVILRQTVHTSDRKLRSFSKREHVGLLLRFLWRGRRMLQTRDALGFWYQRRRLEHHHHHH,not soluble
15,MLSEFLHNKSDAMVNQTHEFLLEMTGVSKEFPGVKALDKVNLKVRPHSVHALMGENGAGKSTLLKCLFGIYEKDEGDIIFLGQHVNFSSSKEALESGVSMVHQELNQVKQCSVMDNIWLGRYPTKGFFVDHDKMYRDTKAIFAELDIDIDPKVKVATLSVSQMQMLEIAKAFSYDAKVVIMDEPTSSLTEKEVNHLFTIIKKLKEKGCGVVYISHKMEEIFSICDEITILRDGQWVDTRPLKGLDMDKIISMMVGRELTQRFPEKSNEPKNVILEVKNLTALNQPSIQDISFELRAGEILGVAGLVGSRRTDIVETIFGVRERSAGHILLHGREMKNHDAHEAIRNGFALVTEERRSTGIYSNLDITFNSLVANVDEYKTPYGLLSDKKMKSDTQWVIDSMRVKTPSHQTHIGSLSGGNQQKVIIGRWLLTQPEILMLDEPTRGIDVGAKYEIYQLILELAKKDKGIIIISSEMPELLGITDRIMVMSNGRNAGIVNTKQTSQNEILELASRYL,not soluble
16,MLSGTRSRSSTKARKGTPRPPALSQSVYCGRRYTGPHTTFFFEITNDEYLLLSVLIFCNPALLQLSENGKLLLTIYRNLYCSALLQHCLLNNQKSGPARFTELLGVYQAIEVHYSDLANYIVLFQLNRPKVNQIVKNCFEAVT,not soluble
